# B1: S1602Q: domain 11 AB5 background + FG loop S1602Q (protein)
# chain: MKSNEHDDCQVTNPSTGHLFDLSSLSGRAGFTAAYAKGWGVYMSICGENENCPPGVGACFGQTRISVGKANKRLRYVDQVLQLVYKDGSPCPSKQGLSYKSVISFVCRPEAGPTNRPMLISLDKQTCTLFFSWHTPLACEQATECSV
# B2: Q1632A: domain 11 HI loop mutant Q1632A, probably AB5 background (protein)
# chain: MKSNEHDDCQVTNPSTGHLFDLSSLSGRAGFTAAYAKGWGVYMSICGENENCPPGVGACFGQTRISVGKANKRLRYVDQVLQLVYKDGSPCPSKSGLSYKSVISFVCRPEAGPTNRPMLISLDKATCTLFFSWHTPLACEQATECSV
# B3: Q1632L: domain 11 HI loop mutant Q1632L, probably AB5 background (protein)
# chain: MKSNEHDDCQVTNPSTGHLFDLSSLSGRAGFTAAYAKGWGVYMSICGENENCPPGVGACFGQTRISVGKANKRLRYVDQVLQLVYKDGSPCPSKSGLSYKSVISFVCRPEAGPTNRPMLISLDKLTCTLFFSWHTPLACEQATECSV
# B4: W1546F: domain 11 AB5 with W1546F in the AB loop (protein)
# chain: MKSNEHDDCQVTNPSTGHLFDLSSLSGRAGFTAAYAKGFGVYMSICGENENCPPGVGACFGQTRISVGKANKRLRYVDQVLQLVYKDGSPCPSKSGLSYKSVISFVCRPEAGPTNRPMLISLDKQTCTLFFSWHTPLACEQATECSV
# B5: Q1632E: domain 11 HI loop mutant Q1632E, probably AB5 background (protein)
# chain: MKSNEHDDCQVTNPSTGHLFDLSSLSGRAGFTAAYAKGWGVYMSICGENENCPPGVGACFGQTRISVGKANKRLRYVDQVLQLVYKDGSPCPSKSGLSYKSVISFVCRPEAGPTNRPMLISLDKETCTLFFSWHTPLACEQATECSV
# B6: G1603A: domain 11 AB5 background + FG loop G1603A (protein)
# chain: MKSNEHDDCQVTNPSTGHLFDLSSLSGRAGFTAAYAKGWGVYMSICGENENCPPGVGACFGQTRISVGKANKRLRYVDQVLQLVYKDGSPCPSKSALSYKSVISFVCRPEAGPTNRPMLISLDKQTCTLFFSWHTPLACEQATECSV
# B7: G1603K: domain 11 AB5 background + FG loop G1603K (protein)
# chain: MKSNEHDDCQVTNPSTGHLFDLSSLSGRAGFTAAYAKGWGVYMSICGENENCPPGVGACFGQTRISVGKANKRLRYVDQVLQLVYKDGSPCPSKSKLSYKSVISFVCRPEAGPTNRPMLISLDKQTCTLFFSWHTPLACEQATECSV
# B8: L1604A: domain 11 AB5 background + FG loop L1604A (protein)
# chain: MKSNEHDDCQVTNPSTGHLFDLSSLSGRAGFTAAYAKGWGVYMSICGENENCPPGVGACFGQTRISVGKANKRLRYVDQVLQLVYKDGSPCPSKSGASYKSVISFVCRPEAGPTNRPMLISLDKQTCTLFFSWHTPLACEQATECSV
# B9: T1633A: domain 11 HI loop mutant T1633A, probably AB5 background (protein)
# chain: MKSNEHDDCQVTNPSTGHLFDLSSLSGRAGFTAAYAKGWGVYMSICGENENCPPGVGACFGQTRISVGKANKRLRYVDQVLQLVYKDGSPCPSKSGLSYKSVISFVCRPEAGPTNRPMLISLDKQACTLFFSWHTPLACEQATECSV
# B10: Q1632K: domain 11 HI loop mutant Q1632K, probably AB5 background (protein)
# chain: MKSNEHDDCQVTNPSTGHLFDLSSLSGRAGFTAAYAKGWGVYMSICGENENCPPGVGACFGQTRISVGKANKRLRYVDQVLQLVYKDGSPCPSKSGLSYKSVISFVCRPEAGPTNRPMLISLDKKTCTLFFSWHTPLACEQATECSV
# B11: K1631E: domain 11 HI loop mutant K1631E, probably AB5 background (protein)
# chain: MKSNEHDDCQVTNPSTGHLFDLSSLSGRAGFTAAYAKGWGVYMSICGENENCPPGVGACFGQTRISVGKANKRLRYVDQVLQLVYKDGSPCPSKSGLSYKSVISFVCRPEAGPTNRPMLISLDEQTCTLFFSWHTPLACEQATECSV
# B12: K1631R: domain 11 HI loop mutant K1631R, probably AB5 background (protein)
# chain: MKSNEHDDCQVTNPSTGHLFDLSSLSGRAGFTAAYAKGWGVYMSICGENENCPPGVGACFGQTRISVGKANKRLRYVDQVLQLVYKDGSPCPSKSGLSYKSVISFVCRPEAGPTNRPMLISLDRQTCTLFFSWHTPLACEQATECSV
# B13: WT + 27G (HI-NMAL): wild-type domain 11 with HI loop NMAL (clone 27G) (protein)
# chain: MKSNEHDDCQVTNPSTGHLFDLSSLSGRAGFTAAYSEKGLVYMSICGENENCPPGVGACFGQTRISVGKANKRLRYVDQVLQLVYKDGSPCPSKSGLSYKSVISFVCRPEAGPTNRPMLISLNMALCTLFFSWHTPLACEQATECSV
# B14: WT + 23D (HI-HFQS): wild-type domain 11 with HI loop 1630-1633 HFQS (clone 23D) (protein)
# chain: MKSNEHDDCQVTNPSTGHLFDLSSLSGRAGFTAAYSEKGLVYMSICGENENCPPGVGACFGQTRISVGKANKRLRYVDQVLQLVYKDGSPCPSKSGLSYKSVISFVCRPEAGPTNRPMLISLHFQSCTLFFSWHTPLACEQATECSV
# B15: AB5 + 51F (HI-NRQS): domain 11 AB5 with HI loop NRQS (clone 51F) (protein)
# chain: MKSNEHDDCQVTNPSTGHLFDLSSLSGRAGFTAAYAKGWGVYMSICGENENCPPGVGACFGQTRISVGKANKRLRYVDQVLQLVYKDGSPCPSKSGLSYKSVISFVCRPEAGPTNRPMLISLNRQSCTLFFSWHTPLACEQATECSV
# B16: WT + 312G (HI-VKLM): wild-type domain 11 with HI loop VKLM (clone 312G) (protein)
# chain: MKSNEHDDCQVTNPSTGHLFDLSSLSGRAGFTAAYSEKGLVYMSICGENENCPPGVGACFGQTRISVGKANKRLRYVDQVLQLVYKDGSPCPSKSGLSYKSVISFVCRPEAGPTNRPMLISLVKLMCTLFFSWHTPLACEQATECSV
# B17: WT + 26C (HI-DMQT): wild-type domain 11 with HI loop DMQT (clone 26C) (protein)
# chain: MKSNEHDDCQVTNPSTGHLFDLSSLSGRAGFTAAYSEKGLVYMSICGENENCPPGVGACFGQTRISVGKANKRLRYVDQVLQLVYKDGSPCPSKSGLSYKSVISFVCRPEAGPTNRPMLISLDMQTCTLFFSWHTPLACEQATECSV
# Target: IGF2 (Homo sapiens, UniProt P01344)
# Experiment: SPR (Biacore T200) of recombinant IGF2R domain 11 mutants on immobilised biotinylated IGF2
# Type: binding
# Parameters: purchased GroPep
# Conditions: Table 1; 25° C., HBS-EP pH 7.4
# Excerpt: Surface plasmon resonance (SPR) binding analysis of recombinant M6P/IGF2R domain 11 mutants interaction with IGF2. Kon indicates association (on) rate; koff, dissociation (off) rate; RU, response units. Binding to IGF2 assessed with BIAcore T200 using purified biotinylated IGF2 and IGF1 on a streptavidin biosensor chip. Recombinant proteins were expressed either in E. coli and/or P. pastoris. All the mutants in the FG and CD loops are on the domain 11^AB5 background for the AB loop unless otherwise stated. All experiments were carried out at 25° C. in HBS-EP buffer (pH 7.4), were repeated 2-5 times on two independent BIAcore chips. nd=not determined. Data for KD expressed as mean of each experiment, and means of kon and koff are shown.
# Measurements were carried out at 25° C. in HBS-EP buffer (pH 7.4) (nd=not determined, np=no protein). Data for KD expressed as mean of each experiment, and means of kon and koff are shown.
# Measurements were carried out at 25° C. in MES-EP buffer, 20 mM MES pH 6.5, 150 mM NaCl, 3 mM EDTA, and 0.005% (v/v) surfactant P20). Data for KD expressed as mean of each experiment, and means of kon and koff are shown.
# Final kinetic analysis of mutants by SPR was conducted using a Biacore T200 biosensor at 25° C. in either HBS-EP (10 mM HEPES pH 7.4, 150 mM NaCl, 3 mM EDTA, and 0.005% (v/v) surfactant P20) or MES-EP (20 mM MES pH 6.5, 150 mM NaCl, 3 mM EDTA, and 0.005% (v/v) surfactant P20) at a flow-rate of 40 μL min^−1. […] For the analysis of the Fc-domain 11^AB5 interaction, approximately 50 RU of a biotinylated IGF2:biotinylated ubiquitin mixture (1:8 proportion) was immobilized on the CM5-streptavidin chip. This interaction was also analysed by immobilizing the Fc-domain 11^AB5 and Fc-domain 11^AB5-RHH (or Fc-domain 11^I1572A as control) by Human Antibody Capture (monoclonal mouse anti-human IgG antibody immobilised on a CM5 chip by amine coupling, GE Healthcare) with and without human IgG1 Fc fragment (Bethyl Laboratories, UK) in the control flow cell. Increasing concentrations of IGF2^1-67, proIGF2^1-104, proIGF2^1-156 and IGF1 ranging from 0.125 to 32 nM were injected. T200 BiaEvaluation software (GE Healthcare) was used to fit the resulting curves according to a 1:1 binding model. Steady state affinities were determined using the kinetic data, taking the response average at 5 seconds before injection end and for 5 seconds average. Thermodynamic data was performed across the temperature range of 10° C. to 30° C., van't Hoff and Erying plots generated and ΔH, −TΔS and ΔG values determined as previously described.
# Sequence of IGF2 (P01344 25-91): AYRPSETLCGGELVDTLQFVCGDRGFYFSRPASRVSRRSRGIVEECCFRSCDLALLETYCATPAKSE
Molecule,Kinetics koff [s⁻¹],Kinetics kon [M⁻¹ s⁻¹]
B1,0.0191,5.88e+06
B2,0.0167,4.5e+06
B3,0.0175,3.18e+06
B4,0.0180,4.5e+06
B5,0.0202,520000
B6,0.0183,2.14e+06
B7,0.0121,4.66e+06
B8,0.0397,790000
B9,0.0196,800000
B10,0.0212,1.96e+06
B11,>0.1,–
B12,0.0867,7.18e+06

# Same assay, conditions: Table 2
Molecule,Kinetics koff [s⁻¹],Kinetics kon [M⁻¹ s⁻¹]
B13,0.25,2e+06
B14,0.065,250000
B15,0.10,7.4e+06
B16,0.15,1.07e+06
B17,0.24,1.89e+06

# — patent US10494415B2, “Insulin-like growth factor 2 (IGF2) binding agents” (Cancer Research Technology Limited, priority 2015, dated 2019)
